# Laboratory results: article PMC6019326
# Like-named read-outs stand apart in the source and are kept apart here.
# Key:
# Assay in all cases: SPR
# [1] = target: recombinant APOL1 G2 protein (His-tag fused, risk variant) (human) (UniProt O14791)
# [2] = target: recombinant APOL1 G1 protein (His-tag fused, risk variant) (human) (UniProt O14791)
# [3] = target: recombinant APOL1 G0 protein (His-tag fused, reference allele) (human) (UniProt O14791)
# [4] = target: recombinant APOL1 G2 protein (His-tag fused, risk variant) (human) (UniProt O14791); remark: listed apart in the source
# [5] = target: recombinant APOL1 G1 protein (His-tag fused, risk variant) (human) (UniProt O14791); remark: listed apart in the source
Substance,Kd [1],Kd [2],Kd [3],Kd [4],Kd [5],KD for suPAR in the presence of αvβ3 integrin (5 nM) with Mn2+ [1],KD for suPAR in the presence of αvβ3 integrin (5 nM) with Mn2+ [2]
human recombinant protein integrin αvβ3 (from UniProt P06756 31-1048; P05106 27-718) (complex),10.7 µM,0.528 µM,0.574 µM,0.007 µM,0.007 µM,,
human integrin α3β1 (from UniProt P26006 33-1051; P05556 21-728) (complex),> 1000 µM,> 1000 µM,,,,,
"human suPAR (soluble urokinase plasminogen activator receptor), recombinant (from UniProt Q03405 23-305)",,,,,,0.024 µM,0.277 µM
